Substitutions are numbered along the chain they refer to. Names and notes keep the numbering of the source.
B1: human liver-type glutaminase GLS2, wild type, without the mitochondrial localization sequence (residue 38-602) (enzyme, UniProt Q9UI32 38-602, looked up)
chain: HHLSEAAAQGRETPHSHQPQHQDHDSSESGMLSRLGDLLFYTIAEGQERIPIHKFTTALKATGLQTSDPRLRDCMSEMHRVVQESSSGGLLDRDLFRKCVSSNIVLLTQAFRKKFVIPDFEEFTGHVDRIFEDVKELTGGKVAAYIPQLAKSNPDLWGVSLCTVDGQRHSVGHTKIPFCLQSCVKPLTYAISISTLGTDYVHKFVGKEPSGLRYNKLSLNEEGIPHNPMVNAGAIVVSSLIKMDCNKAEKFDFVLQYLNKMAGNEYMGFSNATFQSEKETGDRNYAIGYYLKEKKCFPKGVDMMAALDLYFQLCSVEVTCESGSVMAATLANGGICPITGESVLSAEAVRNTLSLMHSCGMYDFSGQFAFHVGLPAKSAVSGAILLVVPNVMGMMCLSPPLDKLGNSHRGTSFCQKLVSLFNFHNYDNLRHCARKLDPRREGAEIRNKTVVNLLFAAYSGDVSALRRFALSAMDMEQKDYDSRTALHVAAAEGHIEVVKFLIEACKVNPFAKDRWGNIPLDDAVQFNHLEVVKLLQDYQDSYTLSETQAEAAAEALSKENLESMV
notes: Tetramer in the apo state (cryo-EM); tetramers stack into filaments with glutamine and Pi; also called LGA; apo-GLS2; source: E. coli BL21 (DE3), purified (Co2+ TALON resin, HiTrap Q anion exchange, Superdex 200 SEC)
B2: human GLS2 (N308A) mutant (enzyme, UniProt Q9UI32 38-602, looked up)
chain: B1 chain with N271A
notes: liver-type glutaminase GLS2, human, residues 38-602, with N308A in the tetramer-tetramer (filament) interface; source: E. coli BL21 (DE3), purified (Co2+ TALON resin, HiTrap Q anion exchange, Superdex 200 SEC)

What was measured:
[1] = target: the molecule itself; test: cryo-EM structure; GLS2 5 µM with 30 µM inhibitor 968 in 2% DMSO; 2D classification, dimer classes kept, 3.65 Å map, model not built
[2] = target: the molecule itself; test: cryo-EM structure; apo-GLS2, 5 µM, no substrate or activator; single particle, C2 symmetry; step: subunits in the tetramer
[3] = target: the molecule itself; test: negative stain electron microscopy; glutaminase 1 µM with glutamine 20 mM and inorganic phosphate (50-200 mM), RT, 30 s to 1 min after mixing (GAC Y466W with DMSO also 30 min); step: tetramers to filament

Protein | stoichiometry N [1] | stoichiometry N [2] | stoichiometry N [3]
B1 | 2 | 4 | –
B2 | – | – | 4
